From patent US20160250307A1 come the findings set out here.

The target of this assay is HLA-A*02 (human). The assay can be described thus: UV-ligand exchange, anti-b2m ELISA; grade: exchange yield >=50%.

As for SLTSEIHFL […], the peptide exchange yield lay in the range of 50 to 75%.
